In data set [1] the target is T1, p97/Valosin-containing protein (VCP), full length (UniProt P55072 1-806).
T1 construct: Homohexamer by gel filtration and DLS; also called p97/VCP; full length p97; source: E. coli Rosetta DE3, purified (nickel IMAC, Superose 6 gel filtration; hexameric 13.5 ml fraction)
Description: SPR; Biacore 3000; p47 immobilised on CM5 by amine coupling; p97/VCP injected, 30 μl/min, 25°C, PBS; Langmuir 1:1 fit. The note with it: both partners purified. Background: Surface plasmon resonance follows binding to a sensor surface in real time, without labels.

Data set [2] concerns the molecule itself. Description: SEC; Superose 6 10/300 GL in PBS with 5 mM β-mercaptoethanol and 0.005% p20; calibrated with thyroglobulin, ferritin, lactate dehydrogenase and BSA.
Data set [3] concerns the target T1, p97/Valosin-containing protein (VCP), …. Description: SPR; Biacore 3000; p97/VCP immobilised on CM5 by amine coupling; two-fold dilution series of p47 (from 1.92 μM) or UN (from 1.88 μM) injected at 30 μl/min, 25°C, PBS with 5 mM β-mercaptoethanol and 0.005% p20; no nucleotide; Langmuir 1:1 fit (p47) or Interaction Map Analysis (UN). The note with it: both partners purified.

As usually defined, the Kd is the equilibrium constant for the complex coming apart. Broadly, the stoichiometry N is a count of units in the complex or per binding partner.

T1 sequence (P55072 whole entry): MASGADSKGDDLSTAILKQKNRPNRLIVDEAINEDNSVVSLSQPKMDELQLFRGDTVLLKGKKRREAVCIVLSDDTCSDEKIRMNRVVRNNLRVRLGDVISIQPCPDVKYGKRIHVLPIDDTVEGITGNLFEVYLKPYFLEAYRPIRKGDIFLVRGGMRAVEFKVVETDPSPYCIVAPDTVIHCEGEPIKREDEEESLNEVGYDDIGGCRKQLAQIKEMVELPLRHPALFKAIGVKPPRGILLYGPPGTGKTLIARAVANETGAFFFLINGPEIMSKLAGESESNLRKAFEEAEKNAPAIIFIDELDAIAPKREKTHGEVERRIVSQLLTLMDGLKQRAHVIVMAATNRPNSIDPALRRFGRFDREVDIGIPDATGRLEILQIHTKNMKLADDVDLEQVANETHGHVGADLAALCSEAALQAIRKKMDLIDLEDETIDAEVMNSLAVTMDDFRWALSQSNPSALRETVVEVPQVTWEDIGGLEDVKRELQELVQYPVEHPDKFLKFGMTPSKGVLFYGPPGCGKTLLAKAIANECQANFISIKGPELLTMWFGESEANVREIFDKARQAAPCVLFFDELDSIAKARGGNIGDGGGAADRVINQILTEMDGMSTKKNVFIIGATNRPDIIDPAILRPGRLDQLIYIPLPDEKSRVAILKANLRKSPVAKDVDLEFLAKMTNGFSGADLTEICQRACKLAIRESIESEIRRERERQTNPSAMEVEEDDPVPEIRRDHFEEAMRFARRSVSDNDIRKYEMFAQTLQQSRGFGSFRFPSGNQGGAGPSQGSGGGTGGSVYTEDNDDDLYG

B1: p47 (natural protein, UniProt O35987 1-370, looked up)
chain: MAEERQDALREFVAVTGAEEDRARFFLESAGWDLQIALASFYEDGGDEDIVTISQATPSSVSRGTAPSDNRVTSFRDLIHDQDEEEEEEEGQRFYAGGSERSGQQIVGPPRKKSPNELVDDLFKGAKEHGAVAVERVTKSPGETSKPRPFAGGGYRLGAAPEEESAYVAGERRRHSGQDVHVVLKLWKTGFSLDNGDLRSYQDPSNAQFLESIRRGEVPAELRRLAHGGQVNLDMEDHRDEDFVKPKGAFKAFTGEGQKLGSTAPQVLNTSSPAQQAENEAKASSSILINEAEPTTNIQIRLADGGRLVQKFNHSHRISDIRLFIVDARPAMAATSFVLMTTFPNKELADENQTLKEANLLNAVIVQRLT
notes: p47, adaptor protein of p97/VCP; Homotrimer by gel filtration; the printed list of Addgene numbers (17229,21266,21267,21268) has one number more than the three plasmids named, so 21268 may be p47; source: E. coli Rosetta DE3, purified (nickel IMAC, Superose 6 gel filtration; 16.25 ml fraction)
For B1, the values for the Kd in data set [1] and in data set [3] were 31.3 nM and roughly 5000 nM, respectively. Also, in data set [2], the “stoichiometry N” value was determined as 3.

Values taken from article PMC3513293 (PLoS ONE, 2012).
